Laboratory results reported in patent publication US8372810B2, “Anti-tumor drug, medicament, composition, and use thereof” (Gene Signal International SA, priority 2007, dated 2013).

How the values were obtained:
[1] = tested on: HUVEC; experiment: In vitro angiogenesis of HUVEC induced by FGF2 and VEGF on Matrigel; format: cell-based, human
Experimental: The purified proteins 497C-T2, 497C-T3, 497C-T4 and 497C-T5 were tested in vitro on angiogenesis of HUVEC induced by FGF2 and VEGF on Matrigel.
24 wells plates were prepared with 250 μL of BD Matrigel™/well and then incubated 30 minutes in incubator.

[2] = tested on: HUVEC; experiment: Wound assay, migration of human endothelial cells; format: cell-based; settings: 18 hours; 497C-T2 0.83 and 1.66 μM; 497C-T3 2.4 μM; 497C-T4 3.52 μM; 497C-T5 3.65 μM; C-terminal tail 4.92 μM
Experimental: Cell migration was tested by the wound assay described by Sato and Rifkin (J Cell Biol. 1988; 107:1199) with few modifications. HUVEC grown in growth medium EGM-2MV (Cambrex) were seeded in 24-well plates at 80 000 cells per well in 500 μL of growth medium and grown to confluence at 37° C. in a humidified atmosphere containing 5% CO2. Cells were scrapped with a plastic tip on one line only. After wounding, the culture medium was changed for fresh medium (control, FIG. 3a) or fresh medium supplemented with: • FIG. 3b: 497C-T2 20 μg/mL (0.83 μM) • FIG. 3c: 497C-T2 40 μg/mL (1.66 μM) • FIG. 3d: 497C-T3 48 μg/mL (2.4 μM) • FIG. 3e: 497C-T4 60 μg/mL (3.52 μM) • FIG. 3f: 497C-T5 61 μg/mL (3.65 μM) • FIG. 3g: C-terminal tail 63 μg/mL (4.92 μM)
After 18 hours of culture, cells were observed and photographed under the inverted microscope (Analysis, Olympus, Rungis, France).

B1: 497C-T2: entire LEL domain of protein 497C, SEQ ID NO:3 (112 amino acids); as produced SEQ ID NO:8, with N-terminal His-Tag and C-terminal tail, 24 kD (protein, listed as Homo sapiens)
chain: MHHHHHHSSGLVPRGSGMKETAAAKFERQHMDSPDLGTDDDDKISGFVFRHEIKDTFLRTYTDAMQTYNGNDERSRAVDHVQRSLSCCGVQNYTNWSTSPYFLEHGIPPSCCMNETDCNPQDLHNLTVAATKVNQKGCYDLVTSFMETNMGIIAGDRASPQPWRYRIRILAPSTSLRPHSSTTTTTTXIRLLTKPERKLSWLLPPLSNN
modifications: X: residue not identified in the source
[1]; 497C-T2 0.27-2 μM, 497C-T3 […], 497C-T4 3.18 μM, 497C-T5 3.35 μM, C-terminal tail 4.14 μM
  anti-angiogenic activity, capillary tube formation: inhibited in vitro angiogenesis in a dose-dependent manner
[1]; at 270 nM
  inhibition of in vitro angiogenesis: small inhibition
[1]; at 540 nM
  inhibition of in vitro angiogenesis: more than 50%
[1]; comparison with literature (Binetruy-Tournaire 2000)
  potency relative to anti-VEGF mAb and/or VEGF receptor (KDR)-based peptides: at least 200 fold
[1]; dose-response study, read-out: IC50, inhibition of in vitro angiogenesis
  IC50: < 540 nM
[2]
  inhibition of endothelial cell migration: inhibited human endothelial cells migration in a dose dependent manner
